In the nanobody polyreactivity screen of Harvey et al. (2022):

Assay: yeast display, Sf9 membrane polyspecificity reagent, FACS + sequencing; frameworks hold sequencing errors
Method in brief: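 A synthetic nanobody library was expressed on Saccharomyces cerevisiae BJ5465 by galactose induction for 36–48 hours. The library was stained for 1 hour at 4 °C with 10% biotinylated, detergent-solubilized Sf9 membrane reagent and enriched with streptavidin microbeads before FACS. Low and high (top ~1%) gates were set on anti-HA fluorescence for expression and streptavidin fluorescence for reagent binding, and each polyreactivity label reflects the gate of origin.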

QVQLEESGGGLVQAGGSLRLSCAASGLTFEWYTMGWYRQAPGKERELVAVITVSGSSTYYADSVKGRFSISRDNAKNTVYLQMNSLKPEDTAVYYCNADWSFYSYTLYDYWGQGTQVTVSS
polyreactivity (PSR sort gate): low polyreactivity

QVQLVESGGGLVQAGGSLRLSWAASGSIFQDYAMGWYRQAPGKERDLVAAISSSGTSTYYADSVKGRCTISRDNAKNTVSLQMNSLQPEDTAVFYCAAPPGRVARYDYWGQGTQVTVSS
polyreactivity (PSR sort gate): low polyreactivity

QVQLVESGGGLVQAGGSLRLSCAASGNIFYYYAMGWYRQAPGKERELVADITSGGDTDYADSVKGRFTISRDNAKNTVYLQMNSLKPEDTAVYYCNAQYYFHVTYDYWGQGTQVTVSS
polyreactivity (PSR sort gate): low polyreactivity

QVQLVESGGGLVQAGGSLRLSCAASGSIFDPYTMGWYRQAPGKERELVAAINWSGGSTYYADSVKGRCTISRDNAKNTVYLQINSLKPEDTAVSHCNADPHGYYGYGYDYWGQGTQVNVSS
polyreactivity (PSR sort gate): low polyreactivity

QVQLVESGGGLVQAGGSLRLSCAASGRIFGAYARGWYRQAPGKERELVAAITSAGSTHYADSVKGRFTISRDNAKNTVYLQMNSLKPEDTAVYYCAADGIARAYVLFDAYDFLYDYWGQGTQVSVSS
polyreactivity (PSR sort gate): low polyreactivity

QFQLVESGGGLVQEGGSLRLSCAASGFTFYYYTMGWYRQAPGKERELVAAITWRGGSTNYADSVKGRFTISRDNAKNTVYLQMNSLKPEDTAVYYCAAVTYWFWPGMDYWGQGTQVTVSS
polyreactivity (PSR sort gate): low polyreactivity

QVQVVESGGGLVQAGGTLRLSCAASGFILPHYTMGWYRQAPAKERELVAAITSGVSTYYADSVKGRFTISRDNAKNTVYLQMNSLKTEDTAVYYCNALATYIGYKYDYWGQGTQVTVSS
polyreactivity (PSR sort gate): low polyreactivity

QVQLVESGGGLVQAGGSLRLSCAASGITSPSYAMGWYRQAPGKERELVAAISKNGVRTYYADSVKGRFTISRDNAKNTVYLQMNSLKPEDTAVYYCAARYNPLYATLYRRMDYWGQGTQVTVSS
polyreactivity (PSR sort gate): high polyreactivity

QVQLVESGGGLVQPGGSLRLSCAASGFIFSYYAIGWYRQAPGKERELVAAISYRGGSTHYADSVKGRFTISRDNAKNTVYLQMNSLKPEDTAVYYCAADRVRRPSPVGMDYWGQGTQVTVSS
polyreactivity (PSR sort gate): high polyreactivity

QVQLVESGGGLVQAGGSLRLSCAASGSTFVKYVMGWYRQAPGKERELVAAISRSSVRTSYADSVKGRFTISRDNAKNTVYLQMNSLKPEDTAVYYCAAEYQYGGTTFDYWGQGTQVTVSS
polyreactivity (PSR sort gate): high polyreactivity

QVQLVESGGGLVQAGGSLRLSCAASGSIFPIYAMGWYRQAPGKERELVAAINRSGGSTYYADSGKGRFTISRDHAKTTVYLQMNSLKPEETAVYDCNADYGYHNQLFRGYYGWSSDHWGQGTQVTVSS
polyreactivity (PSR sort gate): low polyreactivity

QVQLVESGGGLVQAGGSLRLSCAASGRIFRYNAMGWYRQAPGKGRELVAAITWDGGSTYYADSVKGRFTISRDNAKYTVYLQMNSLKPEYTAVYYCKAVTRSYYSDYYWGQGTQVTVSS
polyreactivity (PSR sort gate): high polyreactivity

QVQLVESGGGLVQAGGSLRLSCAASGRTFAYNAMGWYRQAPGKERELVADITSGGSTYYADSVKGRFTISRDNAKNTVYLQMNRLKPEDTAVYYCAAYPQFWYWDYNYWGQGTQVTVSS
polyreactivity (PSR sort gate): high polyreactivity

QVQLVESGGGLVQAGGSLRLSCAASGRIFYFYAMGWYRQAPGKERELVASISSGGITNYADSVKGRFTISRDNAKNTVYLQMNSLKPEDTAVYYCNAGYASGKYSGGYLYGYWGQGTQVTVSS
polyreactivity (PSR sort gate): low polyreactivity

QVQLVESGGGLVQAGGSLRLSCADSGGTFKLYAMGWYSQAPAKESELVAAISRRGGSTYYADSVKGRFTISRDNAKNTVYLQMNSLKPDDTAVYYCAAPGPTQSTQRGGYWGQGTQVTVSS
polyreactivity (PSR sort gate): high polyreactivity

QVQLVESGGGLVQAGVSLRLSYADSGPIFYKYVMGWYRQAPGKEREMDAAINRSGGTTYYADSVKGRFTISRDKAMNTVYLQMNRLKREDTAVYYCNATLPDYWRYYYYQCGDDYWGQGTQVTVSS
polyreactivity (PSR sort gate): low polyreactivity

QVQLVESGGGLVQAGGSLRLSCAPSGFTFLWYAMGWYRQAPGKERELVAGISSDGSTNADSVKGRFTISRDNAKNTVYLQMNSLKPEDTAVYYCDADYSSPWQAVQGDDYWGQGTQVNVSS
polyreactivity (PSR sort gate): low polyreactivity

QVQLVESGGGLVQAGGSLRISCAASGRTFVRYAMGWYRQAPGKERELVAAIDSSGGRTYYADSVKGRFTISRDKAKNTVYLQMNSLKPEDTAVYYCNARRLASYRGYSWGQGTQVTVSS
polyreactivity (PSR sort gate): high polyreactivity

QVQLVDSGGGLVQAGGSLRLSCADSGSINGNYVMGWYRQAPRKERELVAAIRWTGGSTYYADTVKGRFTISRDNAKNTVYLQMNSLKPEDTAVYYCNAESTYYPSGEDYWGQGTQVNVSS
polyreactivity (PSR sort gate): high polyreactivity

QVEHVESGGGLVQAGGSLRLSCAASGGTFSHNDMGWYRQAPGKERELVPSINSGGSTNYADSVKGRFTISRDNAKNTVDLQMNSLKPEDNAVYYCAADVEGWTVESDVYRVGYDYWGQCTQVTVSS
polyreactivity (PSR sort gate): low polyreactivity

QHHLVESGGGLVQAGGSLRLSCAASGRPLQGYAMGWYRQAPGKHRELVAAITWSGGSTYYADSVKGRFTISRDKAKNTVYLQMNSLKPEDTAVYYCATDDDSARFDYWGQGTQVTVSS
polyreactivity (PSR sort gate): low polyreactivity

QVQLVESGGGLVQAGGSLRLTCAASAFIFHFNAMGWYRQAPGKERELVAAISRTGGTTYYADSVKGRFTISRDNAKNTVYLQMNSLKPEDTAVYYCAAYSKYGQHYDYWGQGTQVTVSS
polyreactivity (PSR sort gate): high polyreactivity

QVQLVESGRGLVQAGGSLRLSCAASGSTFRYYAMGWYRQAPGKERELVASITRGASTNYADSVKGRFTISRDNAKNTVYLQMNSLKPEDTAVYYCAADNYCHTFGGTDLRDDYWGQGTQVTVSS
polyreactivity (PSR sort gate): low polyreactivity

QVQLVESGGGLVQAGGSLRLSCAASGRIFPGYAMGWYRQAPGKQRELVAGISNDASTNYADSVKGRFTISRDNAKNTVYLQMNSLKPEDTAVFYCAAEISYLSVPRYDYWGQGTQVTVSS
polyreactivity (PSR sort gate): low polyreactivity

QVQLVESGGGLVQAGGSLRLSCAASGSTFSYNAMGWYRQAPGKERELVAAITSSGSSTYYADSVKGRFTISRYNAKNTVYLQMNSLKPEDTAVYYCNAEVLFVAGQVQRNSGDYWGQGTQVTVSS
polyreactivity (PSR sort gate): low polyreactivity

QVQLVESGGGLVQAGGSLRLRCAASGFISGYNTMGWYRQAAGKEMEFVAAISVSGGRTYYADSVKGRFTFSRDNAKNTVYLQMNSLKPEDTAVYYCAGRYWSWRSFKVDYWGQGTQVTVSS
polyreactivity (PSR sort gate): high polyreactivity

QVQLVESGGGLVQAGGSLRLSCAASGSIFSYNAMGGYRQAPGKERELVAGITSGASTNYADSVKGRFTISRDNAKNTVYLQMNSLKPEDTAVYYCNADDIFRPRDDLYDYWGQGTQVTVSS
polyreactivity (PSR sort gate): low polyreactivity

QVQLVESGGGLVQAGGSLRLSCAASGFTFGYYAMGWYRQAPGKERELVATIDRGGGTSYADSVKGRFTISRDNAKNTVYLQMNSLKPEDTAVYYCAAVRQGYVAYYYWGQGTQVTVSS
polyreactivity (PSR sort gate): high polyreactivity

QVQLVESGGGLVQAGGSLRLSCAASGYTFIDNAMGWYRQAPGRERELVAAISDSAGDTYYADSVKGRFTISRDNAKNTVYLQMNSLKPEDTSVYYCAARGYLRGEQLYVFIRYDYWGHGTQVTVSS
polyreactivity (PSR sort gate): low polyreactivity

QVQLVESGGGLVQAGGSLRLSCAASGSTFTGYVMGWYRQAPGKERELVAAITSSVDGTYYADSVKGRFTISRDNAKNTVYLQMNSLKPEDTAVYDCAADLWKGVYPSYDYWGQGTQVTVSS
polyreactivity (PSR sort gate): low polyreactivity

QVQLVESGGGLVQAGGSRRLSCAASGRSFYGNAMGWYRQAPGTERECVAGISWRGGRTYYADSVKGRFTISRDNANNTVYLQMNSLKPEETAVYYCAASAGYRGRSGYEYWGQGTQVTVSS
polyreactivity (PSR sort gate): high polyreactivity

QVQLEESGGGLVQAGGSLRLSCAASGSTFVPNDMGGYRQAPGKERELVAAITDSGGSTYYADSVKGRFTISRDNAKNTVYLQMNSLKPEDTAVYYCAAEKAEWYYHTVWHFARGEYWGQGTQVTVSS
polyreactivity (PSR sort gate): low polyreactivity

QVQLVESGGGLVQAGGSLRLSCAASGSIFDSYAMGWYRQAPGKEWELVAAISGNSDSTYYADSVKGRFTISRDNAKNTVYLQMNSLKPEDTAVYYCAKEGGNGYDYWGQGTQVTVSS
polyreactivity (PSR sort gate): low polyreactivity

QVQLVESGGGLVQAGGSLRLSCAASGITFRGYAMGWYRQAPGKERELVAAISSRGGSTYYADSVKGRFTISRDNAKNTVYLQMNSLKPEDTAVYYCNAVSGLYFTYTYDYWGQGTQVTVSS
polyreactivity (PSR sort gate): high polyreactivity

QVQLVESGGGLVQAGGSLRLSCADSGRNYIGNAMGWYIHAPGKEPELVAAISSSGGNTYYADSVKGRFTISRDNAKNTVYLQMTSLNPEDNAVYYCAVEVRTLVTYGRSEYYWGQGTKVTVSS
polyreactivity (PSR sort gate): high polyreactivity

QVQLVESGGGLVQAGGSLRISCAASGSTFFRNAMGRYRQAPGKERELVAAITWSGGSTYYADSVKGRFTISRDNAKNTVYLQMNSLKPEDTAVYYFAAGLSYWTPHYYPFDYWGQGTQVTVSS
polyreactivity (PSR sort gate): low polyreactivity

QVQLVESGGGLVQAGGSLRLSCAASGSTFVLYAMGWYRQAPGKERELVAVISWSGGSTYYADSVKGRFTISRDNAKNTVYLQMNSLKPEDTAVYYCAKRYRVSYYPYADPYGYWGQGTQVTVSS
polyreactivity (PSR sort gate): low polyreactivity

QVQLVESVGGLVQAGGSLRLSCAASGRIFVNAMGWYRPAPGKESEVVAAINTRGGSTYYADSVKGRFTISRDNAKNTVYLQLNSLKPEDTAVYYCAARFYTSSRYNYWGQGTQGTVSS
polyreactivity (PSR sort gate): high polyreactivity

QLQLVESGGGLVQAGGSLRLSCAASGSIIGYYAMGWYRQAHGKERELVAAITASGGSTYYADSVKGRFTISRDNAKNTVYLQMNILKPEDTAVYYCAAGTHTDYGRYYYWGQGTQVTVSS
polyreactivity (PSR sort gate): low polyreactivity

QVQLVESGGGLVQAGGSLRLSCAASGIIFLKYAMGWYRQAPGKERELVAAISRSGGGTYYADSVKGRFTISRDNAKNTVYLQMNSLKLEDTAVYYCAARGVDRQGYRFYYWGQGTQVTVSS
polyreactivity (PSR sort gate): high polyreactivity

QVQLVESGRGLVQAGGSLRLSCAASGSIFIVYAMGWYRQAPGKERELVAAISWSGGSTYYADSVKGRFTISRDNAKNTVYLQMNSLKPEDSAVYFCAAKYTLPFRDVKYYSWGQGTQVTVSS
polyreactivity (PSR sort gate): high polyreactivity

QVELVESGGGLGQAGGSLRLSCAASGLIFVLNDMGWYRLAPGKVRELVAAISYSGSSTYADSVKGRFTISRDNAKNTVYLQMNSLKPEDTAVYYCARGSKVRTRGVGYWGQGTQVTVSS
polyreactivity (PSR sort gate): low polyreactivity

QVQLVESGGGLVQAGGSLRLSCAASGFIFYPYAMGWYRQAPGKERELVAVITSGGRTYYADSVKGRFTISRDNAKNTVYLQMYSLKPEDTAVYYCNADTFQWWDIADVYVIVKYGYWGQGTQVTVSS
polyreactivity (PSR sort gate): low polyreactivity
